Values of other authors in paper PMC1087504.

Target: 3 beta-hydroxysteroid dehydrogenase (Bos taurus) (UniProt P14893)
UniProt P14893, sequence (P14893 whole entry): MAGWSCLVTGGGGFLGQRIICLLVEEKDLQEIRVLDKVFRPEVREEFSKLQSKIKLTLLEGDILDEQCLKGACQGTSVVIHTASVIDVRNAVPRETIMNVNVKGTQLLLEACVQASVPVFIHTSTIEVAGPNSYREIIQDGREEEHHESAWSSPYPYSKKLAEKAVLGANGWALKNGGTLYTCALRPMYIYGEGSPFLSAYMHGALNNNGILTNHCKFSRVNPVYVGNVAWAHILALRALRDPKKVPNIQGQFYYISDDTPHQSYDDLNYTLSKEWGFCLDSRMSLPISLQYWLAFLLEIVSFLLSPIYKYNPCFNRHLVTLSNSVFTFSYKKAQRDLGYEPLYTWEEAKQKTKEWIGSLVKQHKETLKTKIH

P450scc (from UniProt P00189)
Kd: 120 nM
